The supplement of paper PMC12636428

The sequences below were run on Saccharomyces cerevisiae (assay: transcriptional activation domain activity (GFP:mCherry ratio, weighted mean of sorted bins, harmonized to initial dataset scale) (arbitrary fluorescence ratio units); higher = stronger transcriptional activation). Details: beta-estradiol 1 µM; induction time 4 h.
How it was run: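 After a 1:5 dilution into SC with 1 uM beta-estradiol and 4 hours at 30 °C, yeast diploids carrying a GFP reporter and URA3-integrated barcoded tiles were sorted into 8 bins by GFP:mCherry ratio. The tiles were fused to an estradiol-inducible synthetic transcription factor. Barcodes were sequenced, tiles below 50 reads were discarded, and activation activity was taken as the read-weighted mean of bin median fluorescence, averaged across barcodes and linearly mapped onto the initial dataset scale.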

Row | Sequence | transcriptional activation domain activity
1 | MCLLGDGRHPEFFYFLFFIPFDFLLHLLFYPRAFSRYLFIWMGCLNCFYFGLA | 56200
2 | MCLRKVSSLFYIGILFVDLFPTTYVSWWFFFFFLCLNLFVLAMICFGVFWFLC | 29300
3 | MCLSFFVFLLYIYQITFSYLLSIMSQLELCRDCFFGPLALLLVIVILSSLCMY | 69700
4 | MCLTGLWWFVCKFAFSFFLSAGLFFLIHPPLFLILLPLSSFFLFLSLAAASGF | 31400
5 | MCLYRYYGFRIFLCLVVVLGDLFLGYLKLYVYIYNTVLVYWGEISISLLLVYI | 71900
6 | MCMYFFTFFFFTFLFFFTFFVFFFFVSMEYLPTLLALIYIYYMSLPTSAQCSN | 35900
7 | MCNLFSFSVQSISGNGVLYIFSFKVLYTFLPSPLLFLSFFSLLFYFFILSLFS | 38400
8 | MCNVALSLAWFIFPPFLHGILPFSTCLLLVFFLSLSSSFFSLITHLLLHCYLF | 34900
9 | MCPVLFCFYSLMILIFFLSFLFRTSYIYTLYFPGLFVCCLFFLFLLFLSLSQW | 73200
10 | MCPVLFCFYSPMILIFFFFSSFSYLLYIHTILSWFVCLLFVCYYECFLLLSFS | 44700
11 | MCQWWQIVLIRWMNLQILKYWAVEVKPLMMMWRRLIVIIIVILYRNFFFFFLM | 30900
12 | MCRCFFWSFLVFFVFFSLLCLFVSFCVFLCFAFLCFVFFVFCFFCFFCLFCVF | 56600
13 | MCRFFIFLLSFLYDISVPILVFWSVHSPLLGWLFPGGGYTWRCLFFLCFLVYM | 51400
14 | MCRTLISFSLFVGVFILTSIRFFCLSLFFLSSFIFYFTLLLFFLLFLSGLFDL | 50300
15 | MCSCVIRRHPLAKPKMGSFQSIGALTCSSCSSWKMCILLFLILVWFTFRLTSL | 21400
16 | MCSIFLVFIVPPNPLSYLISFAFFFLFSFYLWCLLRRGLSYFALYAYLKYALL | 43700
17 | MCSILPTVCNQYLIFLSFVSCPSMLYLISYFFLMWSFFSLHNWFFCWVPCCVL | 52700
18 | MCTLKLLVLLRIYFPTYISFPFFSPSLLSKCHSFISFSYVPWSLVTFLIYLPS | 75600
19 | MCVAFSFSSPRFFYSWVMGDFSFFFSFLPPFDSFFSFSLGSIMYPLFLGIFFF | 59400
20 | MCVFHFLPWLLFPSPLISLFFVFFILFSFFVFFFLVPSSCPSFISFFPVSCLF | 38000
21 | MCVFLFFVLWLLQKLGLLALALRCYVQKNSLIFFLFFFLVLDYIFFFLHWCKH | 35300

Row | Sequence | transcriptional activation domain activity
22 | MCVGTCIYINIPGLHRCYLLLLHLRLSYHIPMYMFIGVPGLRFRVALLISSYF | 53300
23 | MCVHVCLMFCSLLLSLSPFFFFHDLFLFLYTFSFSLSCFTPSYFSMFSSIPSS | 76200
24 | MCVLFGNFFFFLLFSFCFYLFFFLSSFLAPLPAFFLLFCLLMGRKIGVGIIPL | 40800
25 | MCVLHHLSHTLCFALFCYVIEAFRFTSYLLLLPFWRFYVLVVIPLFIHISYVF | 52500
26 | MCVVFFPVLLLWRLLFRSFSFLPVCIVSPVTRFFFLSFFPSQSIVSNSFILPA | 29800
27 | MCVWELVLVLVVWCFRCFSFFHPLHFLPWLLYPSPLISLFFCLFYPLLFFVFF | 37900
28 | MCWACRILAAFPPPLPVFWFWFWFWFWFWFWFWLTAGWLAGFGFFVFAFCFLY | 32500
29 | MCYIIIVRWKRVWISCSCLAVIPVCPSIIPLLSILILSSLFFPFNPIFPIHGI | 34100
30 | MCYQGQHVYLNHEVFAQSLLAVGFARCQVRLMWVAGIRPIVRVSTNNFLGSIR | 44800
31 | MDAAVATEPIPKKRGRPRKVASEETPAVEPKGVRKASTKTAAAVKKEEAPKKV | 37900
32 | MDAPQNNSRGNNARRNRNRGGNRQSTGGVTKQQSQQQSKPAAKPVNVQTTVVI | 47800
33 | MDASSPTSSSAKTPHNKGPRACATCARAKSRCIAGPDGAAGNCERCHRLKKPC | 9040
34 | MDATAKKAVEQPKRRACDECRGRKLACSKEVDGCARCKREGIKCVYSAQKRMG | 10500
35 | MDAVSDAARESPDSERGAESEAKRRKVRKGTRSCWECKRRKIRCSFSTASDSV | 38000
36 | MDAYFFFVFLSFLFFYIFFLLFSILLLFSFYFLCSGVHNMCFLVGVWLWSRGG | 35800
37 | MDCLGMEFIGCEIFGAVALIFLFFFLFFFFFIFFHFLLIFLFSFSFFLFFFFV | 47200
38 | MDCLLNPVVPCLVCFLPFVCKIAVSLHLPLWSICCVCVSIRIALVCTLIAFII | 50400
39 | MDDALSVKSNDDGTYDVAVHIADVSYFVKPNTALDRDARKRATSVYLIQRAVP | 15900
40 | MDDDIAMFDSLATTQPIDIAASNQQNGEIAQLWDFNVDQFNMTPSNSSGSATI | 76100
41 | MDDTDSSAAGGARWIVVSTGGRAQSPEDEAGLRRVKGACRARQNKSKNAILIH | 47100
42 | MDDTERRTAKRSRFDQTEPEPKPRASRFDRRSRSPPARKPESRRSRSPIARPS | 17000

Row | Sequence | transcriptional activation domain activity
43 | MDEDEDENENENENSKPPPPLPALPPHPHPHPHPHPHPHPQPQQPQSSSTTNE | 40800
44 | MDEEADEKGGKRRTSRACDGCRRRKIRCIASGEANSSEKAPCVNCAQSKLSCT | 27500
45 | MDEEVEERNKAFEWTSYSWGKMQIIRYWSRCHAIVVLYTSKRRMWLLVCWLSA | 60400
46 | MDEGFFFFCFSFLFLLSPPSSWYFVFSFFLPLNFPSCSLFFVITFFLFLFFFW | 37900
47 | MDELGKIAFGSIPPPQAEPNLIGDNFGIFVDDMFTAYEDPMAHWSFLFEDLFP | 151000
48 | MDESDGERGGGYGVFFLLFFFFFFLSFLFSFWLFLLFTFVLISFFGAITLLKE | 25600
49 | MDEVGLSSMRYYHFSIFNVLIVFLLGTTFLNTIIDLVYTPTSILTLLANSLPQ | 51800
50 | MDFFYIFNYLISYITNRLMILLYYFTHTHFLLFPLSLFYYYFSCSCFFLLFPP | 36500
51 | MDFNGVVFCPVYISLLPLFFYPYNIYHFNDSLMRPNEISVAVYLLLILLNFQD | 51000
52 | MDFNQLLAIFYDCIFPFREFYRWLYYGGVVQKNYFLHRELSFTLSNDAYLRFK | 41100
53 | MDFTLTWVKLHVYFFFLPYPCWKINSLVYPFFFLFFLSFPFSFFFSLFSLFLC | 69100
54 | MDGDERPRKRARLACTNCNARRVKCDVTDRQPCRNCEIAHAVCETRESKRGKH | 9400
55 | MDGEPANPAVSAPTTRRRRRRPALVCEQCRVRKIKCDRGSPCSKCARGRRSHL | 42000
56 | MDGGLFCVSISLVHFLLLLFPSHPLILRLIFLLFTFHFPVRLYFNFVLLQLLT | 67900
57 | MDGLFFFFFPFFFLFITLPTNFILFLIVGGSSSSLFFFFGFWFLVWFGLVYLC | 27600
58 | MDGSEANRPYHAKKPHRKSRSGCRNCKTRKVKCDESRPTCRACRLRREACAYP | 16600
59 | MDGVFGDCFFFLCFIFVFCFITFFFFFGLLLLLCCYGLDGGYVLVFFFLFFFV | 33500
60 | MDGVFGVCFLCFISVFYLCFIAFFFSILTTTLLLWLRWGAMFLSFFLSCYLFF | 32700
61 | MDGVGLGSHRGSGSSSSSSSSAADRAPRHSTRRKRGRESRGAVVVIAATNRPN | 39200
62 | MDGVLKLPFLSFLFPFFLFFSSPPLFSPCFFPLFLSFFAVIAFFPFLCFCLPV | 29300
63 | MDILDIFFLFYSLLVSFLFFFLLITLLFLSPFISISFYFLTAFYVYFWVFFRA | 34100

Row | Sequence | transcriptional activation domain activity
64 | MDILDIFFLFYSLLVSFLFFSLLIPPLFLSSFISISFYFFDGVLCVLLGFFFR | 61500
65 | MDISFFMLFVFDDFFLYSYFFFPSPRPLSNDATLIHIVCILFIILVGLTIVLL | 36800
66 | MDIYGSCICPGGLALGEFFYFLFFLVLSSYYYYFLFSFLFLFSLFLSFVVWRF | 49700
67 | MDKFRVLRLVLFRWWLFALCLIRFEVMEALLIHSPRFFEKLILVRTNLYLLCI | 50100
68 | MDKIRKGKVVVVGCGGVGSWAAVMLVRSCVQHFVVYLVCSSIYIIISGVSKIR | 58900
69 | MDKLVQYEHTFLPPPHMQYLSYFDCLENLAHYIDAIHPNNLNMWFFLIYDQCI | 63300
70 | MDLFFLLHFFIFIFLWHWLGSCLVWLFLVWLWGVFSFFFYYIFSCVSFFGSAI | 61300
71 | MDLGEERYRRLVSYLFFSFLYLHFIFLYFSFLWFMACGSWQWLNNLFFFISSF | 63800
72 | MDLGSAVPAPRRRIRDRTSQACNRCRATKIRCDNQAPACSPCRAKKLECIRDP | 37600
73 | MDLVILMVYLNNNNNILIIIIMISTLIIHQLVQLIYLNLWLGCILWKTVLCSG | 42900
74 | MDLVLCIGLFGHIPYHLQYSLPFVSFFFSHNIVHYSEMHYFGVVNSGILWLGF | 63300
75 | MDLYFMDLFIVILWCGFIVYLVYFLFFYYESGLVYLYIINSMGLCCESGVLFV | 67500
76 | MDNIRSKHNHLLTAGWIYAFIDFWCITLRHFLIFIASMLFYGYLCIWCPTILV | 59000
77 | MDNKSSKSPGNIPKHRACDECRSRKLACSKEPDGCARCKRERIKCHYSPQKPM | 34700
78 | MDNQAGEQKPKQRRVADRERKRAVRACDGCRRQKEKCDGGVPCRRCIRLRRQC | 53600
79 | MDNTTDLYNYLVDMGLKFLLFWNMVNCKFCHLCLLMPFDITYIIFIFILLLEF | 70300
80 | MDPEQATDAKPPKPPVVRGARACTVCRAAKMKCVGAEDGQKPCQRCKRANVEC | 53000
81 | MDPGLFLMVLLWLSLPLSIVPWNLPMNWCFQSCDTIRPYQARLSGFFLLLLFQ | 48600
82 | MDPQIDSQTPKRPSRGACRECASSKVKCLPQSSTNDGKCERCQLRGKACERRS | 22700
83 | MDPSTRRRVTNIGPLDKRRTLRRCEQCRISRTKCEGGRPCHACRARLVGCRDQ | 41700
